Target: T1, CD3 epsilon homodimer protein (UniProt P07766 23-126)
T1 construct: also called CD3 (CD3 epsilon)
Assay: SPR, CD3 epsilon homodimer on chip, one-arm antibody as analyte;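 further: surface plasmon resonance at 25 °C with CD3 epsilon homodimer amine-coupled to a CM4 sensor chip, antibody injected as analyte, HBS-EP+ as running buffer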

T1 sequence (P07766 23-126): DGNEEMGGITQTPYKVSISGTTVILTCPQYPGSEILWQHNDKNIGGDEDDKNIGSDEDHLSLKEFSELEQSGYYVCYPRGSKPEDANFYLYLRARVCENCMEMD

| Binder | KD ratio (KD of CE115HA000/KD of altered form) |
| --- | --- |
| CE115HA000 A99D (antibody, human IgG1, kappa, L234A L235A, N297A, name in Kabat numbering, one-arm antibody) heavy: QVQLVESGGGVVQPGRSLRLSCAASGFTFSNAWMHWVRQAPGKGLEWVAQIKAKSNNYATYYAESVKGRFTISRDDSKNSLYLQMNSLKTEDTAVYYCRYVHYGDYYGVDAWGQGTTVTVSSASTKGPSVFPLAPSSKSTSGGTAALGCLVKDYFPEPVTVSWNSGALTSGVHTFPAVLQSSGLYSLSSVVTVPSSSLGTQTYICNVNHKPSNTKVDKKVEPKSCDKTHTCPPCPAPEAAGGPSVFLFPPKPKDTLMISRTPEVTCVVVDVSHEDPEVKFNWYVDGVEVHNAKTKPREEQYASTYRVVSVLTVLHQDWLNGKEYKCKVSNKALPAPIEKTISKAKGQPREPQVYTLPPSRCELTKNQVSLSCAVKGFYPSDIAVEWESNGQPENNYKTTPPVLDSDGSFFLVSKLTVDKSRWQQGNVFSCSVMHEALHNHYTQKSLSLSPDYKDDDDK EPKSSDKTHTCPPCPAPELLGGPSVFLFPPKPKDTLMISRTPEVTCVVVDVSHEDPEVKFNWYVDGVEVHNAKTKPREEQYNSTYRVVSVLTVLHQDWLNGKEYKCKVSNKALPAPIEKTISKAKGQPREPQVCTLPPSRDELTKNQVSLWCLVKGFYPSDIAVEWESNGQPENNYKTTPPVLDSDGSFFLYSKLTVDKSRWQQGNVFSCSVMHEALHNRYTQKSLSLSP light: DIVMTQSPLSLPVTPGEPASISCRSSQSLVHSNRNTYLHWYQQKPGQAPRLLIYKVSNRFSGVPDRFSGSGSGTDFTLKISRVEAEDVGVYYCGQGTQVPYTFGQGTKLEIKRTVAAPSVFIFPPSDEQLKSGTASVVCLLNNFYPREAKVQWKVDNALQSGNSQESVTEQDSKDSTYSLSSTLTLSKADYEKHKVYACEVTHQGLSSPVTKSFNRGEC | 1.03 |
| CE115HA000 A99S (antibody, human IgG1, kappa, L234A L235A, N297A, name in Kabat numbering, one-arm antibody) heavy: QVQLVESGGGVVQPGRSLRLSCAASGFTFSNAWMHWVRQAPGKGLEWVAQIKAKSNNYATYYAESVKGRFTISRDDSKNSLYLQMNSLKTEDTAVYYCRYVHYGSYYGVDAWGQGTTVTVSSASTKGPSVFPLAPSSKSTSGGTAALGCLVKDYFPEPVTVSWNSGALTSGVHTFPAVLQSSGLYSLSSVVTVPSSSLGTQTYICNVNHKPSNTKVDKKVEPKSCDKTHTCPPCPAPEAAGGPSVFLFPPKPKDTLMISRTPEVTCVVVDVSHEDPEVKFNWYVDGVEVHNAKTKPREEQYASTYRVVSVLTVLHQDWLNGKEYKCKVSNKALPAPIEKTISKAKGQPREPQVYTLPPSRCELTKNQVSLSCAVKGFYPSDIAVEWESNGQPENNYKTTPPVLDSDGSFFLVSKLTVDKSRWQQGNVFSCSVMHEALHNHYTQKSLSLSPDYKDDDDK EPKSSDKTHTCPPCPAPELLGGPSVFLFPPKPKDTLMISRTPEVTCVVVDVSHEDPEVKFNWYVDGVEVHNAKTKPREEQYNSTYRVVSVLTVLHQDWLNGKEYKCKVSNKALPAPIEKTISKAKGQPREPQVCTLPPSRDELTKNQVSLWCLVKGFYPSDIAVEWESNGQPENNYKTTPPVLDSDGSFFLYSKLTVDKSRWQQGNVFSCSVMHEALHNRYTQKSLSLSP light: DIVMTQSPLSLPVTPGEPASISCRSSQSLVHSNRNTYLHWYQQKPGQAPRLLIYKVSNRFSGVPDRFSGSGSGTDFTLKISRVEAEDVGVYYCGQGTQVPYTFGQGTKLEIKRTVAAPSVFIFPPSDEQLKSGTASVVCLLNNFYPREAKVQWKVDNALQSGNSQESVTEQDSKDSTYSLSSTLTLSKADYEKHKVYACEVTHQGLSSPVTKSFNRGEC | 0.76 |
| CE115HA000 A99L (antibody, human IgG1, kappa, L234A L235A, N297A, name in Kabat numbering, one-arm antibody) heavy: QVQLVESGGGVVQPGRSLRLSCAASGFTFSNAWMHWVRQAPGKGLEWVAQIKAKSNNYATYYAESVKGRFTISRDDSKNSLYLQMNSLKTEDTAVYYCRYVHYGLYYGVDAWGQGTTVTVSSASTKGPSVFPLAPSSKSTSGGTAALGCLVKDYFPEPVTVSWNSGALTSGVHTFPAVLQSSGLYSLSSVVTVPSSSLGTQTYICNVNHKPSNTKVDKKVEPKSCDKTHTCPPCPAPEAAGGPSVFLFPPKPKDTLMISRTPEVTCVVVDVSHEDPEVKFNWYVDGVEVHNAKTKPREEQYASTYRVVSVLTVLHQDWLNGKEYKCKVSNKALPAPIEKTISKAKGQPREPQVYTLPPSRCELTKNQVSLSCAVKGFYPSDIAVEWESNGQPENNYKTTPPVLDSDGSFFLVSKLTVDKSRWQQGNVFSCSVMHEALHNHYTQKSLSLSPDYKDDDDK EPKSSDKTHTCPPCPAPELLGGPSVFLFPPKPKDTLMISRTPEVTCVVVDVSHEDPEVKFNWYVDGVEVHNAKTKPREEQYNSTYRVVSVLTVLHQDWLNGKEYKCKVSNKALPAPIEKTISKAKGQPREPQVCTLPPSRDELTKNQVSLWCLVKGFYPSDIAVEWESNGQPENNYKTTPPVLDSDGSFFLYSKLTVDKSRWQQGNVFSCSVMHEALHNRYTQKSLSLSP light: DIVMTQSPLSLPVTPGEPASISCRSSQSLVHSNRNTYLHWYQQKPGQAPRLLIYKVSNRFSGVPDRFSGSGSGTDFTLKISRVEAEDVGVYYCGQGTQVPYTFGQGTKLEIKRTVAAPSVFIFPPSDEQLKSGTASVVCLLNNFYPREAKVQWKVDNALQSGNSQESVTEQDSKDSTYSLSSTLTLSKADYEKHKVYACEVTHQGLSSPVTKSFNRGEC | 1 |

Next, values leading:

| KD ratio (KD of CE115HA000/KD of altered form) | Binder |
| --- | --- |
| 0.85 | CE115HA000 A99Q (antibody, human IgG1, kappa, L234A L235A, N297A, name in Kabat numbering, one-arm antibody) heavy: QVQLVESGGGVVQPGRSLRLSCAASGFTFSNAWMHWVRQAPGKGLEWVAQIKAKSNNYATYYAESVKGRFTISRDDSKNSLYLQMNSLKTEDTAVYYCRYVHYGQYYGVDAWGQGTTVTVSSASTKGPSVFPLAPSSKSTSGGTAALGCLVKDYFPEPVTVSWNSGALTSGVHTFPAVLQSSGLYSLSSVVTVPSSSLGTQTYICNVNHKPSNTKVDKKVEPKSCDKTHTCPPCPAPEAAGGPSVFLFPPKPKDTLMISRTPEVTCVVVDVSHEDPEVKFNWYVDGVEVHNAKTKPREEQYASTYRVVSVLTVLHQDWLNGKEYKCKVSNKALPAPIEKTISKAKGQPREPQVYTLPPSRCELTKNQVSLSCAVKGFYPSDIAVEWESNGQPENNYKTTPPVLDSDGSFFLVSKLTVDKSRWQQGNVFSCSVMHEALHNHYTQKSLSLSPDYKDDDDK EPKSSDKTHTCPPCPAPELLGGPSVFLFPPKPKDTLMISRTPEVTCVVVDVSHEDPEVKFNWYVDGVEVHNAKTKPREEQYNSTYRVVSVLTVLHQDWLNGKEYKCKVSNKALPAPIEKTISKAKGQPREPQVCTLPPSRDELTKNQVSLWCLVKGFYPSDIAVEWESNGQPENNYKTTPPVLDSDGSFFLYSKLTVDKSRWQQGNVFSCSVMHEALHNRYTQKSLSLSP light: DIVMTQSPLSLPVTPGEPASISCRSSQSLVHSNRNTYLHWYQQKPGQAPRLLIYKVSNRFSGVPDRFSGSGSGTDFTLKISRVEAEDVGVYYCGQGTQVPYTFGQGTKLEIKRTVAAPSVFIFPPSDEQLKSGTASVVCLLNNFYPREAKVQWKVDNALQSGNSQESVTEQDSKDSTYSLSSTLTLSKADYEKHKVYACEVTHQGLSSPVTKSFNRGEC |
| 1.4 | CE115HA000 A99K (antibody, human IgG1, kappa, L234A L235A, N297A, name in Kabat numbering, one-arm antibody) heavy: QVQLVESGGGVVQPGRSLRLSCAASGFTFSNAWMHWVRQAPGKGLEWVAQIKAKSNNYATYYAESVKGRFTISRDDSKNSLYLQMNSLKTEDTAVYYCRYVHYGKYYGVDAWGQGTTVTVSSASTKGPSVFPLAPSSKSTSGGTAALGCLVKDYFPEPVTVSWNSGALTSGVHTFPAVLQSSGLYSLSSVVTVPSSSLGTQTYICNVNHKPSNTKVDKKVEPKSCDKTHTCPPCPAPEAAGGPSVFLFPPKPKDTLMISRTPEVTCVVVDVSHEDPEVKFNWYVDGVEVHNAKTKPREEQYASTYRVVSVLTVLHQDWLNGKEYKCKVSNKALPAPIEKTISKAKGQPREPQVYTLPPSRCELTKNQVSLSCAVKGFYPSDIAVEWESNGQPENNYKTTPPVLDSDGSFFLVSKLTVDKSRWQQGNVFSCSVMHEALHNHYTQKSLSLSPDYKDDDDK EPKSSDKTHTCPPCPAPELLGGPSVFLFPPKPKDTLMISRTPEVTCVVVDVSHEDPEVKFNWYVDGVEVHNAKTKPREEQYNSTYRVVSVLTVLHQDWLNGKEYKCKVSNKALPAPIEKTISKAKGQPREPQVCTLPPSRDELTKNQVSLWCLVKGFYPSDIAVEWESNGQPENNYKTTPPVLDSDGSFFLYSKLTVDKSRWQQGNVFSCSVMHEALHNRYTQKSLSLSP light: DIVMTQSPLSLPVTPGEPASISCRSSQSLVHSNRNTYLHWYQQKPGQAPRLLIYKVSNRFSGVPDRFSGSGSGTDFTLKISRVEAEDVGVYYCGQGTQVPYTFGQGTKLEIKRTVAAPSVFIFPPSDEQLKSGTASVVCLLNNFYPREAKVQWKVDNALQSGNSQESVTEQDSKDSTYSLSSTLTLSKADYEKHKVYACEVTHQGLSSPVTKSFNRGEC |
| 1.15 | CE115HA000 A99F (antibody, human IgG1, kappa, L234A L235A, N297A, name in Kabat numbering, one-arm antibody) heavy: QVQLVESGGGVVQPGRSLRLSCAASGFTFSNAWMHWVRQAPGKGLEWVAQIKAKSNNYATYYAESVKGRFTISRDDSKNSLYLQMNSLKTEDTAVYYCRYVHYGFYYGVDAWGQGTTVTVSSASTKGPSVFPLAPSSKSTSGGTAALGCLVKDYFPEPVTVSWNSGALTSGVHTFPAVLQSSGLYSLSSVVTVPSSSLGTQTYICNVNHKPSNTKVDKKVEPKSCDKTHTCPPCPAPEAAGGPSVFLFPPKPKDTLMISRTPEVTCVVVDVSHEDPEVKFNWYVDGVEVHNAKTKPREEQYASTYRVVSVLTVLHQDWLNGKEYKCKVSNKALPAPIEKTISKAKGQPREPQVYTLPPSRCELTKNQVSLSCAVKGFYPSDIAVEWESNGQPENNYKTTPPVLDSDGSFFLVSKLTVDKSRWQQGNVFSCSVMHEALHNHYTQKSLSLSPDYKDDDDK EPKSSDKTHTCPPCPAPELLGGPSVFLFPPKPKDTLMISRTPEVTCVVVDVSHEDPEVKFNWYVDGVEVHNAKTKPREEQYNSTYRVVSVLTVLHQDWLNGKEYKCKVSNKALPAPIEKTISKAKGQPREPQVCTLPPSRDELTKNQVSLWCLVKGFYPSDIAVEWESNGQPENNYKTTPPVLDSDGSFFLYSKLTVDKSRWQQGNVFSCSVMHEALHNRYTQKSLSLSP light: DIVMTQSPLSLPVTPGEPASISCRSSQSLVHSNRNTYLHWYQQKPGQAPRLLIYKVSNRFSGVPDRFSGSGSGTDFTLKISRVEAEDVGVYYCGQGTQVPYTFGQGTKLEIKRTVAAPSVFIFPPSDEQLKSGTASVVCLLNNFYPREAKVQWKVDNALQSGNSQESVTEQDSKDSTYSLSSTLTLSKADYEKHKVYACEVTHQGLSSPVTKSFNRGEC |
